The text below walks through data of the nanobody polyreactivity screen of Harvey et al. (2022).

This series can be described thus: yeast display, Sf9 membrane polyspecificity reagent, FACS + sequencing; frameworks hold sequencing errors. An outline of the steps: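 In a synthetic yeast display library (Saccharomyces cerevisiae BJ5465), nanobody expression was induced with galactose for 36–48 hours. FACS gates were set low and high (top ~1%) using anti-HA fluorescence for expression and streptavidin fluorescence for binding of the Sf9 membrane reagent. Each polyreactivity label is drawn from the gate of origin.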
As for “QVQLVESGGGLVQAGGSLRLSCAASGSIFYTNVMGWYRQAPGKERELVAAISSRGGSTYYADSVKGRFTISRDNAKNTVYLQMNSLKPEDTAVYYCAARFLHYYPTRGYTYDYWGQGTQVTVSS”, the “polyreactivity (PSR sort gate)” value is on record as “high polyreactivity”.

Consider “QVQLVESGGGLVQAGGSLRLSCAASGSTFGRNTMGWYRQAPGKERELVAAISKSGGSTRYADSVKGRFTISRDNAKNTVYLQMNSVKPEDTAVYYCAARVYSLGYGGDYWGQGTQVTVSS”, for which the “polyreactivity (PSR sort gate)” value is listed as “high polyreactivity”.

In the case of “QVQLVESGGGLVQAGGSLRLSSAASGIIFGVYGMGWYRPAPGKERELVASIRYSSVRTYYADSVKGRFTISRDNAKNTVYLQMNSLKPEDTAVYYCAKYYVWPSYGYWGQGTQVTVSS”, the “polyreactivity (PSR sort gate)” value was “high polyreactivity”.

In the case of “QDQLVESGGGLVQAGGSLRLSCAASGLTFKYYTMGWYRQAAGKERELVAYISRTGRTSYADSVKGRFTISRDNAKNTVYLQMNSLNPEDTGVYYCNADFYVSGYSLFDSIYDYWGQGTQVTVSS”, the “polyreactivity (PSR sort gate)” value is on record as “high polyreactivity”.

Take “QVQLVESGGGLVQAGGSLRLSCAASGRIVGRHALGWYRQAPGKERELVAAMSSSGGTYYADSVKGRFTISRDKAKNTLYLQMNSLKPEDTAVYYCNARVRTQQRWVDYWGQGTQVTVSS”: the “polyreactivity (PSR sort gate)” value is listed as “high polyreactivity”. Take “QVQLVESGGGLVQAGGSLRLRCAASGRTFYYNVMGWYRQAPGKERELVATITSGASTNYADSVKGRFTISRDNAKNTVYLQMNSLKPEDTAVYYCNTEYYPRWYGPYSYYDFDSWGQGTEVTVSS”: the “polyreactivity (PSR sort gate)” value is listed as “low polyreactivity”. In the case of “QVQLVESGGGLVQAGGSLRLSCAASGRIILDYAMGWYRQAPGKERELVAAITWRGGSTNYADSVKGRFTISRDNAKNTVYLQMNSLKPEDTAVYYCNADPDDQYDYWGQGTQVTVSS”, the “polyreactivity (PSR sort gate)” value is recorded as “low polyreactivity”. With “QVQLVESGGGLVQAGGSLRLSCAASGFIFLIYAMGWYRQAPGKERELVATIRYSGGRTYYADSVKGRFTISRDNAKNTVYLQMNSLKPEDTAVYYCAARSVWFSGQGRMNYWGQGTQVTVSS” the entry was “high polyreactivity”. In the case of “QVQLVESGGGLVQAGGSLRLSCAASGRIFTIYAMGWYRQAPGKERELVAAISDRGTRTYYADSVKGRFTISRDNAKNTVYLQMNSLKPEDTAVYYCATDALYTYGYYYWGQGTQVTVSS”, the “polyreactivity (PSR sort gate)” value is “low polyreactivity”. Regarding “QVQLVESGGGLVQAGGSLRLSCAASGLTFYSNAMGWYRQAPGKERELVASISNGGSTNYADSVKGRFTISRDNAKNTVYLQMNSLKPEDTAVYYCAAEYSLRHRRYTFFAEMDYWGQGTQVTVSS”, the “polyreactivity (PSR sort gate)” value was “low polyreactivity”.

Consider “QVQLVESGGGLVQAGGSLRLSCAASGRIFWWYVMGWYRQAPGKERELVAAITRSGVSTYYADSVKGRFTLSRDNAKNTVYLQINSLKPEDTAVYYCNVGPWPRSYAHRGYWGQVTQVTVSS”, for which the “polyreactivity (PSR sort gate)” value is given as “high polyreactivity”.

Take “QVQLVESGGGLVQAGGSLRLSCAASGSIFPRYAMGWYRQAPGKERELVAAISWSGGSTYYADSVKGRFTISRDNAKNTFYLQMNSLKPEDTAVYYCAALSKHVQVAYDPWGQGTQVTVSS”: the “polyreactivity (PSR sort gate)” value is “high polyreactivity”. Regarding “QVQLVESGGGLVQAGGSLRLSCAACGRTFYNYAMGWYRQAPGKERELVAAITRGGSTYYADSVKGRFTISRDNAKNTVYLQMNSLKPEDTAVYYCNAVFPYEHEEYDYWGQGTQVTVSS”, the “polyreactivity (PSR sort gate)” value is “high polyreactivity”. Regarding “QVQLVESGGCLVQAGGSLRLSCAASGFTFPGNAMGWYRQAPGKERELVAAMSASGGKTYYADSVKGRFTISRDNAKNTVYLQMNSLKPEDTAVYYCAAVVAFATGTYYYWGQGTQVTVSS”, the “polyreactivity (PSR sort gate)” value was “high polyreactivity”. With “QDQLVESGGGLVQAGGSLRLSCAASVITFDLYAMGWYRQAPGKERELVAAISISSTSTYYADSVKGLFTISRDNAKNTVYLQMISLKPEDTAGYYCNAVPSSKTFWFDYWGLGTQVTVSS”, the “polyreactivity (PSR sort gate)” value is reported as “low polyreactivity”. Take “EEELVESGGGLVQAGGSSLRLSCAASGFIFVSNAMGWYRQAPGKERELVASIRWSDGSTFYADSVKGRFTISRDNAKNTVYLQMNSLKPEDTAVYYCNAVYEHRRVGWVTIDYGYWGQGTQVTVSS”: the “polyreactivity (PSR sort gate)” value is listed as “low polyreactivity”.
